Source: the supplement of paper PMC9170038

Columns and labels:
[1] = system: MS2 coat protein; assay: apparent KD of MS2 coat protein, switch ON state; designed switch direction (-1 OFF switch, 1 ON switch): 1; higher = weaker reporter binding; details: FMN input: 0 or 200 uM; Eterna round: R93 (includes R88 designs)
In short: (§1)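 Each design's apparent KD comes from the median of binding-curve fits to its normalised clusters. Those clusters carried RNA switches transcribed on-chip from Illumina sequencing clusters. SNAP-549-labelled MS2 coat protein was titrated onto them in twofold steps (0.7 or 1.5 nM to 3 µM; per step 0.8–1.5 h down to 10–20 min). Conditions were 100 mM Tris-HCl pH 7.5, 80 mM KCl, 4 mM MgCl2, without or with constant ligand.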

[2] = system: MS2 coat protein; assay: apparent KD of MS2 coat protein, switch OFF state (with FMN for OFF switches, without FMN for ON switches); designed switch direction (-1 OFF switch, 1 ON switch): 1; higher = weaker reporter binding; details: FMN input: 0 or 200 uM; Eterna round: R93 (includes R88 designs)
In short: as §1

Sequence: UUAAGCCGCGGGCAGGAUAUGUAUUAAAAUACAUGAGGAUCACCCAUGUGCAGGUGUAACACCUGACAGAAGGGCCAAUCGCAGC [Ceanreerqu]
- apparent KD of MS2 coat protein [1]: 26.4 nM
- apparent KD of MS2 coat protein [2]: 228 nM

Sequence: GAAGACAUAGUUCAGGAUAUAGGAAUAGUCACAUGAGGAUCACCCAUGUGCAUUUAUAUGCGCGCUUAGAAGGGAGGUAGUUAUA [SameState2 Malc#21]
- apparent KD of MS2 coat protein [1]: 24.2 nM
- apparent KD of MS2 coat protein [2]: 23.9 nM

Sequence: AACAAUCUAUCUGAGGAUAUAUGUCAAAAGACAUGAGGAUCACCCAUGUAAAAACAUGAAAAAUAAUAGAAGGCAGAUAGAUUGA [SS2: 1140]
- apparent KD of MS2 coat protein [1]: 59.9 nM
- apparent KD of MS2 coat protein [2]: 52.4 nM

Sequence: AGGAAACAUGAGGAUCACCCAUGUAAAAAUAUGGGAGGAUAUGCGAAAAGAAACAAAGAAGCAGAAGGCCUAAGAA [75%, Ex5 sub 1, 7]
- apparent KD of MS2 coat protein [1]: 11.9 nM
- apparent KD of MS2 coat protein [2]: 155 nM

Sequence: AGGCAACAUGAGGAUCACCCAUGUCGCAACAAUCAAGGAUAUGGGAGAAAUAAGAAAAUACCAGAAGGUGAAAUAA [Telelabe]
- apparent KD of MS2 coat protein [1]: 60.7 nM
- apparent KD of MS2 coat protein [2]: 92 nM

Sequence: AUAAAAACGUAUGAGGAUAUCCAAAAUAAAACAUGAGGAUCACCCAUGUGAAUAAAAUAACAAUGGGAGAAGGCAUACGUAUCAU [SS 2 M 53]
- apparent KD of MS2 coat protein [1]: 12.5 nM
- apparent KD of MS2 coat protein [2]: 28.8 nM

Sequence: GAAAUAAAAACACAGGAUAUCCAAAAGAAAACAUGAGGAUCACCCAUGUAAAGAAAAUAAAAAUGGGAGAAGGGUGAAAUAAAAA [Mat - Same State 2 - JL mod - D27]
- apparent KD of MS2 coat protein [1]: 30.4 nM
- apparent KD of MS2 coat protein [2]: 33.8 nM

Sequence: ACAAAACAUGAGGAUCACCCAUGUCAGAAAUGGCAAGGAUAUAGAAAACAAAAACAAAAACUAGAAGGUGCAAAAC [Meechl SS1 R2 m3]
- apparent KD of MS2 coat protein [1]: 84.8 nM
- apparent KD of MS2 coat protein [2]: 154 nM

Sequence: CGAAAGGAGAGAGAGGAUAUCCAAAGGAAAACAUGAGGAUCACCCAUGUAGAAGGUAGGAGAUUGGGAGAAGGCUCAAGAGAUAU [salish99-ss2-153]
- apparent KD of MS2 coat protein [1]: 20 nM
- apparent KD of MS2 coat protein [2]: 44.2 nM

Sequence: AUAUAAAUAAGGUAGGAUAUACUAAAGUAAACAUGAGGAUCACCCAUGUAAAGAAAGAAACUCAUGUAGAAGGACCAUAUAUAUA [viburnum 1]
- apparent KD of MS2 coat protein [1]: 24.4 nM
- apparent KD of MS2 coat protein [2]: 264 nM

Sequence: GAAAAACAUGAGGAUCACCCAUGUAAAAAUAUGGGAGGAUAUUGAAACACGAAAGUCAAACAAGAAGGCCUAAAAG [Garnet 3]
- apparent KD of MS2 coat protein [1]: 44.1 nM
- apparent KD of MS2 coat protein [2]: 147 nM

Sequence: AAAAAAAAAACUGAGGAUAUGAAAUAAUAGACAUGAGGAUCACCCAUGUUUUCGGUCGAAAAAAUGCAGAAGGCAGAAAAAAAAAA [JR_SameState2_Sub3]
- apparent KD of MS2 coat protein [1]: 19.4 nM
- apparent KD of MS2 coat protein [2]: 23.8 nM

Sequence: GGAGCCGGCACUGAGGAUAUUCAUAUUAAAACAUGAGGAUCACCCAUGUAGGCCAGAAGGCCUUGGGAGAAGGCAGGUCGACUCG [Diqureveri]
- apparent KD of MS2 coat protein [1]: 20.8 nM
- apparent KD of MS2 coat protein [2]: 288 nM

Sequence: AUAAAAUACUGUGAGGAUAUCCAUAAUAAAACAUGAGGAUCACCCAUGUGUAGAUAAUAAUAAUGGGAGAAGGCACAUAAUAAUA [Mat - Same state - Mayanna Mod - D101]
- apparent KD of MS2 coat protein [1]: 15.7 nM
- apparent KD of MS2 coat protein [2]: 41 nM

Sequence: AAUAACUAUAACUAGGAUAUCGGAAAUAAGACAUGAGGAUCACCCAUGUAAUAAGACAAAAUAUACGAGAAGGAGUAGGGUGAAA [JR_SS002_Sub012]
- apparent KD of MS2 coat protein [1]: 61.2 nM
- apparent KD of MS2 coat protein [2]: 53.2 nM

Sequence: AGGAGACAUGAGGAUCACCCAUGUGAGAAGAGGCGAGGAUAUCGAAAAAAAAAAAAAAAACGAGAAGGCGCGAGAA [SameState1]
- apparent KD of MS2 coat protein [1]: 35.4 nM
- apparent KD of MS2 coat protein [2]: 58.2 nM

Sequence: AAGAAACAUGAGGAUCACCCAUGUCGAGAGAGACGAGGAUAUCUGAAUCGAUUAGAUUACGGAGAAGGCGUGAAAA [Same State 1.2 (Same State of Confusion2 - minimal change )]
- apparent KD of MS2 coat protein [1]: 18.3 nM
- apparent KD of MS2 coat protein [2]: 30.4 nM

Sequence: AAAAGACAUGAGGAUCACCCAUGUCAAAACGUAGGAGGAUAUGUCGUGAAAAAAGACUUGGCAGAAGGCCUGUGUC [SS1 - 42]
- apparent KD of MS2 coat protein [1]: 15.4 nM
- apparent KD of MS2 coat protein [2]: 19.5 nM

Sequence: AGAAGACAUGAGGAUCACCCAUGUGGGAAUAUGGGAGGAUAUACAAAGACGAGAGUCAGAGUAGAAGGCCUAGGAA [salish99-SS1-091(!)]
- apparent KD of MS2 coat protein [1]: 33 nM
- apparent KD of MS2 coat protein [2]: 132 nM

Sequence: AAAAUAUAAAGGAAGGAUAUCCAAAGGACUACAUGAGGAUCACCCAUGUAAAGAAAGAAUAAGUGGGAGAAGGUCCAAAUAAUAA [Designing denovo 31]
- apparent KD of MS2 coat protein [1]: 27 nM
- apparent KD of MS2 coat protein [2]: 68.3 nM

Sequence: AUAUAUAUAAGACAGGAUAUCCGAAAGUAAACAUGAGGAUCACCCAUGUAAAGAAAGAAACUCAUGGAGAAGGGUCAAUAUAUAU [Mat - Same State 2 - Tesla mod - D84]
- apparent KD of MS2 coat protein [1]: 22.4 nM
- apparent KD of MS2 coat protein [2]: 65.6 nM

Sequence: ACAAAACAUGAGGAUCACCCAUGUCAAGCUAAUCAAGGAUAUGGGAGCGGUCCGGUGCGAUCAGAAGGUGAUUAGA [Gecelear]
- apparent KD of MS2 coat protein [1]: 99 nM
- apparent KD of MS2 coat protein [2]: 53.2 nM

Sequence: AAAGACAUAGUUCAGGAUAUGGUAAUAGUCACAUGAGGAUCACCCAUGUUCAUUUAUAUGAGCGAUCAGAAGGGAGGUAAAAAAA [SameState2 Malc#15]
- apparent KD of MS2 coat protein [1]: 182 nM
- apparent KD of MS2 coat protein [2]: 244 nM

Sequence: GGAUACAUACAGAAGGAUAUGAGAACAAAGACAUGAGGAUCACCCAUGUACAAAAGGUGGAACAAUCAGAAGGUCUAAACAACAAA [Club and Ball]
- apparent KD of MS2 coat protein [1]: 57.6 nM
- apparent KD of MS2 coat protein [2]: 52.1 nM

Sequence: AAGAAACAUGAGGAUCACCCAUGUAAGAUAAACACAGGAUAUGCGAAAAGAACAAAAGAAGCAGAAGGGUGAAGAA [Mat - Same State 1 - Tesla mod - D145]
- apparent KD of MS2 coat protein [1]: 25.4 nM
- apparent KD of MS2 coat protein [2]: 42.4 nM

Sequence: GGAAAUAAAAGAGAGGAUAUCCAAAAGGAAACAUGAGGAUCACCCAUGUAAAAGAAAGGAAAAUGGGAGAAGGCUCAAAAUAAAG [salish99-ss2-004]
- apparent KD of MS2 coat protein [1]: 44.2 nM
- apparent KD of MS2 coat protein [2]: 56.1 nM

Sequence: AGGAAACAUGAGGAUCACCCAUGUAAAAAAGUGGGAGGAUAUACUAGAAGAAACAAAAUAGUAGAAGGCCUAAAAA [75%, Ex sub1, 32]
- apparent KD of MS2 coat protein [1]: 9.99 nM
- apparent KD of MS2 coat protein [2]: 108 nM

Sequence: AAAAAACAUGAGGAUCACCCAUGUGAGAACAUGGGAGGAUAUACGAGGACGAGAGUCAUAGUAGAAGGCCUAAAAA [Garnet 67]
- apparent KD of MS2 coat protein [1]: 109 nM
- apparent KD of MS2 coat protein [2]: 65.6 nM

Sequence: GAAAAACAUGAGGAUCACCCAUGUGGAAAUAUGGGAGGAUAUACAAAGACGAAAGUCAAAGUAGAAGGCCUAAAAG [Mat - Same State 1 - Eli mod - D4]
- apparent KD of MS2 coat protein [1]: 18.2 nM
- apparent KD of MS2 coat protein [2]: 111 nM

Sequence: AAUAUAUUAAGUGAGGAUAUCAAGAAAAAAACAUGAGGAUCACCCAUGUGGGAAACACAAUAGGGUGAGAAGGUACUUAAUAUAU [Samwise Clockwise 18 - Jieux - Same State 2]
- apparent KD of MS2 coat protein [1]: 10200 nM
- apparent KD of MS2 coat protein [2]: 8.08 nM

Sequence: CCCAAUGCAACGAAGGAUAUCCGUCAUGCCACAUGAGGAUCACCCAUGUACUGGCGGCACAAGACGGAGAAGGUCGGGUGCUGUG [Quenrean]
- apparent KD of MS2 coat protein [1]: 9.4 nM
- apparent KD of MS2 coat protein [2]: 11 nM

Sequence: AACAAUCUAUCUGAGGAUAUCAAGUCAAAGACAUGAGGAUCACCCAUGUUGCAGGAAACUGCUCUUGAGAAGGCAGAUAGAUUGA [SS2: 1130]
- apparent KD of MS2 coat protein [1]: 9.84 nM
- apparent KD of MS2 coat protein [2]: 13.5 nM

Sequence: AAGAAACAUGAGGAUCACCCAUGUAAGAUAAACACAGGAUAUGCGAAAGAAAUAAAUAAAGCAGAAGGGUGAAGAA [Mat - Same State 1 - Tesla mod - D148]
- apparent KD of MS2 coat protein [1]: 22.4 nM
- apparent KD of MS2 coat protein [2]: 44.5 nM

Sequence: AAAAAACAUGAGGAUCACCCAUGUCGAAAGACAUGAGGAUAUGUGUGGAAACCAUACUAUACAGAAGGCAUAAAAA [SS1 - 1009]
- apparent KD of MS2 coat protein [1]: 82.6 nM
- apparent KD of MS2 coat protein [2]: 66.1 nM

Sequence: AUAAAACAUGAGGAUCACCCAUGUAGAAAUAUGGGAGGAUAUACUAGAUCGAAAGAUCUAGUAGAAGGCCUUAAAG [JL Mod of Eli 3]
- apparent KD of MS2 coat protein [1]: 31.7 nM
- apparent KD of MS2 coat protein [2]: 52.6 nM

Sequence: AUAUAUAUAAGGUAGGAUAUCCAAAAGUCCACAUGAGGAUCACCCAUGUAAAGAAAGAAAAAAUGGGAGAAGGACCAUAUAUAUA [77%, More Tesla, 5]
- apparent KD of MS2 coat protein [1]: 18.7 nM
- apparent KD of MS2 coat protein [2]: 42.1 nM

Sequence: GAAAAACAUGAGGAUCACCCAUGUAGAAAUAUGGGAGGAUAUACAAAGACGAAAGUCAAAGUAGAAGGCCCAAAAG [Starry Same State 1.1 (mat747 round 1 mod)]
- apparent KD of MS2 coat protein [1]: 24.1 nM
- apparent KD of MS2 coat protein [2]: 38.8 nM

Sequence: GGAAAGAAAAGCGAGGAUAUGCUAGGUAAUACAUGAGGAUCACCCAUGUUUUUUUUUAACAAAUUGCAGAAGGCGCAAGAAAGAAA [Ungainly]
- apparent KD of MS2 coat protein [1]: 16.5 nM
- apparent KD of MS2 coat protein [2]: 18.2 nM

Sequence: AAAAAACAUGAGGAUCACCCAUGUAAUUAAAACGCAGGAUAUAGAAAAAAAAAAAUGUUACUAGAAGGGUGAAAAA ['Same State 1']
- apparent KD of MS2 coat protein [1]: 113 nM
- apparent KD of MS2 coat protein [2]: 62.9 nM

Sequence: AAAGUACAUGAGGAUCACCCAUGUUGGAACAAAGCAGGAUAUGUACAAAAGGAAAUAAAUACAGAAGGGCUAAGAA [Same State #2]
- apparent KD of MS2 coat protein [1]: 20 nM
- apparent KD of MS2 coat protein [2]: 32.9 nM

Sequence: AUAACACAUGAGGAUCACCCAUGUAGAAAUAAGGGAGGAUAUACAAAGACGAAAGUCAAAGUAGAAGGCUCAAAAG [76%, Meechl 4]
- apparent KD of MS2 coat protein [1]: 14.8 nM
- apparent KD of MS2 coat protein [2]: 18.6 nM

Sequence: AAAAGACAUGAGGAUCACCCAUGUAAAAACAUAGGAGGAUAUGUCGUGAAAAAAGACUUGGCAGAAGGCCUUUGUC [SS1 - 45]
- apparent KD of MS2 coat protein [1]: 48.1 nM
- apparent KD of MS2 coat protein [2]: 76.4 nM

Sequence: AAAAAAAAAAACUAGGAUAUUUAACGGACAACAUGAGGAUCACCCAUGUCACAAAAAAAAAUAGUAAAGAAGGAGUAAAAAAAAAA [Same State 2]
- apparent KD of MS2 coat protein [1]: 25 nM
- apparent KD of MS2 coat protein [2]: 23.8 nM
